Assay [1] has as its target T1, human PD-1-Fc (R and D systems, Minneapolis, Minn.) (human, UniProt Q15116 25-167). The experiment in a line: ELISA; upper left panel. Background: In an ELISA, binding on a coated surface is turned into a signal by an enzyme label.
The target in assay [2] is T1, human PD-1-Fc (R and D systems, …). The experiment in a line: ELISA; lower right panel.
Assay [3] has the same target. The experiment in a line: ELISA; lower left panel.
Assay [4] shares this target. The assay is described as follows: ELISA; upper right panel.
Assay [5] shares this target. The experiment in a line: inhibition ELISA; hPDL-2 Fc blockade.
Assay [6] has the same target. The experiment in a line: inhibition ELISA; hPDL-1 Fc blockade.
Assay [7] shares this target. The experiment in a line: inhibition ELISA; hPDL-2 Fc blockade. The source holds these as a separate data set.
The target is the same in assay [8]. The assay is described as follows: inhibition ELISA; hPDL-1 Fc blockade. The source holds these as a separate data set.
For assay [9], the target named is human PD-1-His (R & D systems, Minneapolis, Minn.) (human, UniProt Q15116 25-167). The experiment in a line: BLI.

From patent publication US20170044259A1 (published 2017) come the findings set out here.

Where a chain is given by its changes, count along the chain named.

For orientation: Kd means the free concentration of one partner at which half of the binding sites on the other are occupied at equilibrium, for simple one-to-one binding. Low values mean higher affinity, high ones lower affinity. As usually defined, the IC50 is the point on the concentration scale where inhibition reaches its midpoint.

T1 sequence (Q15116 25-167): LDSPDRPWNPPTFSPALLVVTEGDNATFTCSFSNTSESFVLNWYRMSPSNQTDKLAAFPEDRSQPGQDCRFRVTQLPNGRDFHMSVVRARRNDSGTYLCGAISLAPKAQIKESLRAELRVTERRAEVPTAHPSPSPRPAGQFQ
Sequence of human PD-1-His (R & D systems, Minneapolis, Minn.) (Q15116 25-167): as above

B1: PD-1 1.5 PD009 2001 (antibody)
heavy: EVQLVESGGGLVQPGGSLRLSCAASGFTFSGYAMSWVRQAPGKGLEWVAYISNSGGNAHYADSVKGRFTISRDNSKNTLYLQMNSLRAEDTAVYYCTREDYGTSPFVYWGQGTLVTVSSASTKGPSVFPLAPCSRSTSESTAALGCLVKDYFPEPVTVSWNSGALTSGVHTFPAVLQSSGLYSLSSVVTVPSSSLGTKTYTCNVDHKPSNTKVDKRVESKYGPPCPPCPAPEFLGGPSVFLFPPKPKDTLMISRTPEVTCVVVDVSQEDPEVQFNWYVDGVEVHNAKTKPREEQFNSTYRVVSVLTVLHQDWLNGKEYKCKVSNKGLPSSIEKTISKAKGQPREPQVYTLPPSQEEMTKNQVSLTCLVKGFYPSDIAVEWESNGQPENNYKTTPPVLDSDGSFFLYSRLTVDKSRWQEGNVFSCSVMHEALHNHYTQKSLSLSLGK
light: QGQSGQGAPRTCYTYQCSSFYTGGGSSGGSISSGLLSGRSDNHGGGSDIQLTQSPSSLSASVGDRVTITCRASESVDAYGISFMNWFQQKPGKAPKLLIYAASNQGSGVPSRFSGSGSGTDFTLTISSMQPEDFATYYCQQSKDVPWTFGQGTKLEIKRTVAAPSVFIFPPSDEQLKSGTASVVCLLNNFYPREAKVQWKVDNALQSGNSQESVTEQDSKDSTYSLSSTLTLSKADYEKHKVYACEVTHQGLSSPVTKSFNRGEC
B1 showed a dissociation constant (Kd) in assay [1] of 0.399 nM. In other words, the sub-nanomolar range.

B2: PD-1 1.5 PD006 2001 (antibody)
heavy: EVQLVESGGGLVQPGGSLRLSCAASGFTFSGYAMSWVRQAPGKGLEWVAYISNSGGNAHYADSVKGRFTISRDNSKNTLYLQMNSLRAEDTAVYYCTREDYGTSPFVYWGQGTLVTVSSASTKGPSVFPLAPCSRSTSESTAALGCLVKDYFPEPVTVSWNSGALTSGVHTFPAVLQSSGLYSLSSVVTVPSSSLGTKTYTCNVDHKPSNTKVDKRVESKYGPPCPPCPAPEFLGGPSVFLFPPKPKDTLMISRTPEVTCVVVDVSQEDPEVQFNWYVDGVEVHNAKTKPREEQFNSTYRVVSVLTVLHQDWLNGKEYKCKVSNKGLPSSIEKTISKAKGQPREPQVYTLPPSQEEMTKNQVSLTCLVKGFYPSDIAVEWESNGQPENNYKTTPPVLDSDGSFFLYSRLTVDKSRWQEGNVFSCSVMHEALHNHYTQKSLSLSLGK
light: QGQSGQGAPRCYMFASYCKSQYGGGSSGGSISSGLLSGRSDNHGGGSDIQLTQSPSSLSASVGDRVTITCRASESVDAYGISFMNWFQQKPGKAPKLLIYAASNQGSGVPSRFSGSGSGTDFTLTISSMQPEDFATYYCQQSKDVPWTFGQGTKLEIKRTVAAPSVFIFPPSDEQLKSGTASVVCLLNNFYPREAKVQWKVDNALQSGNSQESVTEQDSKDSTYSLSSTLTLSKADYEKHKVYACEVTHQGLSSPVTKSFNRGEC
In turn, B2 showed an equilibrium dissociation constant (Kd) in assay [1] of 5.66 nM. Against the preceding molecule, the Kd is about 14-fold higher.

B3: PD-1 1.5 PD028 2001 (antibody)
heavy: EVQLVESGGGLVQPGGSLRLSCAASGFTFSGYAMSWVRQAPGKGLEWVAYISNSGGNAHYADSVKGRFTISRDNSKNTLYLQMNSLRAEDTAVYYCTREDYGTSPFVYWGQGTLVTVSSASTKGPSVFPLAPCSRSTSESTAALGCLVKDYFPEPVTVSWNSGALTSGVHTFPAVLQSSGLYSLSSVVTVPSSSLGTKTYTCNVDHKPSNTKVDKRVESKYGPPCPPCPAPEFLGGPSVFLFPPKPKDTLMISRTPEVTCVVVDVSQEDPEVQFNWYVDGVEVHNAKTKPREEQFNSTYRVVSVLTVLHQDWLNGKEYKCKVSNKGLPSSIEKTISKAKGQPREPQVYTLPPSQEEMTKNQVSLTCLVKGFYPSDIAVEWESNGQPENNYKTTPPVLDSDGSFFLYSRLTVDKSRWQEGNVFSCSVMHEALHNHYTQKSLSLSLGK
light: B2 light with A8F, P9Q, R10P, Y12L, Y17S, K19F, S20T, Q21S, Y22K
In turn, B3 registered a Kd in [2] of 4.97 nM.

B4: PD-1 1.5 PD019 2001 (antibody)
heavy: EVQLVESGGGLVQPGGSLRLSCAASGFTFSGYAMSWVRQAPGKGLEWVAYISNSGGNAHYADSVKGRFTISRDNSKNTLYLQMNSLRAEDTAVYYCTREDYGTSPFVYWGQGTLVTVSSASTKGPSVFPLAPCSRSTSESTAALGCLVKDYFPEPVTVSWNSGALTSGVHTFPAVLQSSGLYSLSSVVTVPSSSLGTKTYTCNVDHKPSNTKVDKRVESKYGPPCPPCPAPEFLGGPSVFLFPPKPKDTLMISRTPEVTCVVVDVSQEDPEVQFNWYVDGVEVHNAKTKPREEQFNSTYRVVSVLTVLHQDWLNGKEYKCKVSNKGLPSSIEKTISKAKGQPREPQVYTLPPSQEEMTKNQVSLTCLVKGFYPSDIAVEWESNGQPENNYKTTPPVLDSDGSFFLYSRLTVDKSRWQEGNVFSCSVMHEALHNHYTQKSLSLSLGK
light: QGQSGQGPCDQNPYFYPYVCHAGGGSSGGSISSGLLSGRSDNHGGGSDIQLTQSPSSLSASVGDRVTITCRASESVDAYGISFMNWFQQKPGKAPKLLIYAASNQGSGVPSRFSGSGSGTDFTLTISSMQPEDFATYYCQQSKDVPWTFGQGTKLEIKRTVAAPSVFIFPPSDEQLKSGTASVVCLLNNFYPREAKVQWKVDNALQSGNSQESVTEQDSKDSTYSLSSTLTLSKADYEKHKVYACEVTHQGLSSPVTKSFNRGEC
The molecule B4 gave a dissociation constant Kd in [3] of 5.45 nM.

B5: PD-1 1.5 PD012 2001 (antibody)
heavy: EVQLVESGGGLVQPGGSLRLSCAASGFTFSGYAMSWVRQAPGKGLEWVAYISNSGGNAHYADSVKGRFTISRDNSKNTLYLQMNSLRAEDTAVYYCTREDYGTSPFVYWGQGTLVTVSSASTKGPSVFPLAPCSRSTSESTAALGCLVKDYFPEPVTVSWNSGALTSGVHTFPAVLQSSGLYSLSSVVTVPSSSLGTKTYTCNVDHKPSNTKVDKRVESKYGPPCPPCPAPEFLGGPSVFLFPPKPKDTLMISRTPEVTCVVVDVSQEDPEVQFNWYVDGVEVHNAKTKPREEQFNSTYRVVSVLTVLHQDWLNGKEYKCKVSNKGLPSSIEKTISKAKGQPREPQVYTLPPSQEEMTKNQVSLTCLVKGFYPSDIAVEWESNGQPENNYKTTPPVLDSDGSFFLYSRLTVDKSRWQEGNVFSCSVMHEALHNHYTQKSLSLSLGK
light: QGQSGQGNWLDCQFYSECSVYGGGGSSGGSISSGLLSGRSDNHGGGSDIQLTQSPSSLSASVGDRVTITCRASESVDAYGISFMNWFQQKPGKAPKLLIYAASNQGSGVPSRFSGSGSGTDFTLTISSMQPEDFATYYCQQSKDVPWTFGQGTKLEIKRTVAAPSVFIFPPSDEQLKSGTASVVCLLNNFYPREAKVQWKVDNALQSGNSQESVTEQDSKDSTYSLSSTLTLSKADYEKHKVYACEVTHQGLSSPVTKSFNRGEC
In turn, B5 displayed a Kd in assay [4] of 1.74 nM.

B6: PD-1 1.5 PD026 2001 (antibody)
heavy: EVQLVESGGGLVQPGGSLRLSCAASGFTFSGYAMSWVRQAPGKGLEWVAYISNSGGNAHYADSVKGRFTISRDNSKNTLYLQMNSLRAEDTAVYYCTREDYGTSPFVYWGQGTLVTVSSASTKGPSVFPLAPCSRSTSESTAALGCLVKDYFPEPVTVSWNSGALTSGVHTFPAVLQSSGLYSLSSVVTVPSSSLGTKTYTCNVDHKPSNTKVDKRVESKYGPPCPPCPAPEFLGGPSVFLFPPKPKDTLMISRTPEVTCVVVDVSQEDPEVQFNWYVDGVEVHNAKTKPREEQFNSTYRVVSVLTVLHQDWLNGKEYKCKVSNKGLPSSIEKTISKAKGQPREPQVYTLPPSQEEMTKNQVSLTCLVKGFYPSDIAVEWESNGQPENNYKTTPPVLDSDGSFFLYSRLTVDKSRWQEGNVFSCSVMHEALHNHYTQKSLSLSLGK
light: QGQSGQGGMCSAYAYSSKLCTIGGGSSGGSISSGLLSGRSDNHGGGSDIQLTQSPSSLSASVGDRVTITCRASESVDAYGISFMNWFQQKPGKAPKLLIYAASNQGSGVPSRFSGSGSGTDFTLTISSMQPEDFATYYCQQSKDVPWTFGQGTKLEIKRTVAAPSVFIFPPSDEQLKSGTASVVCLLNNFYPREAKVQWKVDNALQSGNSQESVTEQDSKDSTYSLSSTLTLSKADYEKHKVYACEVTHQGLSSPVTKSFNRGEC
In [2], B6 showed a Kd of 3.75 nM.

B7: PD-1 1.5 PD017 2001 (antibody)
heavy: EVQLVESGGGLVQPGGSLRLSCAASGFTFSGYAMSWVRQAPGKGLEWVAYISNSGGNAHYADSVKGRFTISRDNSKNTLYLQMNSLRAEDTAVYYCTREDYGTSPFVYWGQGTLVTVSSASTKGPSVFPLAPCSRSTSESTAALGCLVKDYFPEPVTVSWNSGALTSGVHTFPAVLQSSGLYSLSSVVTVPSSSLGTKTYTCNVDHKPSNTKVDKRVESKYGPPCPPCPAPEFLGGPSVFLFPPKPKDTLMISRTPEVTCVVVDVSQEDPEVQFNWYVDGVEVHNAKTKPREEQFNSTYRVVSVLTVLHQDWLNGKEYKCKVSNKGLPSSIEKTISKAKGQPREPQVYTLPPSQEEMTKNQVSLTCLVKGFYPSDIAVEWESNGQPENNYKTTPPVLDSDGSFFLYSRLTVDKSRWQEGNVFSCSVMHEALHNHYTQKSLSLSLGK
light: B6 light with G8T, M9T, S11N, A12L, A14Q, Y15Q, K18M, L19F, T21N, I22A
In turn, B7 gave a Kd in assay [4] of 4.36 nM. That is a single-digit nanomolar value.

B8: PD-1 1.5 PD025 2001 (antibody)
heavy: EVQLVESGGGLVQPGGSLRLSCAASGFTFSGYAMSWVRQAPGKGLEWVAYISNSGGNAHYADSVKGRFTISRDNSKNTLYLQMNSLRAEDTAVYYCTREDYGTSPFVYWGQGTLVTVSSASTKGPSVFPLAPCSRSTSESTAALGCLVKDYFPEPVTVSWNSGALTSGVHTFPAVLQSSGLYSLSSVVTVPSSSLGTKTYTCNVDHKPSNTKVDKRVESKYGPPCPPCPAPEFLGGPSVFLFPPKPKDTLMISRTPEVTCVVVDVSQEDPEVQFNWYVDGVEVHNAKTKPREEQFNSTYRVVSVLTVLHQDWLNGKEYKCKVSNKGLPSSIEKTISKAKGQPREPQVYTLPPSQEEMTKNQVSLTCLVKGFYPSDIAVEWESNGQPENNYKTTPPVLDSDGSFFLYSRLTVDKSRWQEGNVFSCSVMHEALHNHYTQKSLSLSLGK
light: B6 light with G8S, M9R, A12V, A14E, Y15V, K18G, T21D, I22W
In [3], B8 had a Kd of 5.22 nM.

B9: A1.5 PD34 2001 (antibody)
heavy: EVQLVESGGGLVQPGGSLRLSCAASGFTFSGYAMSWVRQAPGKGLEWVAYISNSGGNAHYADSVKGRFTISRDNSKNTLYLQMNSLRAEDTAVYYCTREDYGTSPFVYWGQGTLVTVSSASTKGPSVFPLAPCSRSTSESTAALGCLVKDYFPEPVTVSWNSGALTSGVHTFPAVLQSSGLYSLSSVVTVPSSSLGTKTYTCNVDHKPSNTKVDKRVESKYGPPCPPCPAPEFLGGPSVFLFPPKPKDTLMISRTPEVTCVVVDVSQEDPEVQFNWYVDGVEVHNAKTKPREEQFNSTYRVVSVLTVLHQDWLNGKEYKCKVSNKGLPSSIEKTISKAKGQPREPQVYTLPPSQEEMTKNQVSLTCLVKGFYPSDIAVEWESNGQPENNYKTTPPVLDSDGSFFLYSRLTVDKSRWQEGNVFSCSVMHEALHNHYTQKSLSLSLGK
light: QGQSGQGTSYCSIEHYPCNTHHGGGSSGGSISSGLLSGRSDNHGGGSDIQLTQSPSSLSASVGDRVTITCRASESVDAYGISFMNWFQQKPGKAPKLLIYAASNQGSGVPSRFSGSGSGTDFTLTISSMQPEDFATYYCQQSKDVPWTFGQGTKLEIKRTVAAPSVFIFPPSDEQLKSGTASVVCLLNNFYPREAKVQWKVDNALQSGNSQESVTEQDSKDSTYSLSSTLTLSKADYEKHKVYACEVTHQGLSSPVTKSFNRGEC
On to B9, for which the Kd came out at 9.37 nM in assay [1], 8.12 nM in assay [2], 8.4 nM in assay [3] and 7.3 nM in assay [4].

B10: A1.0 (antibody, V domains shown)
VH: EVQLVESGGGLVQPGGSLRLSCAASGFTFSGYAMSWVRQAPGKGLEWVAYISNSGGNAHYADSVKGRFTISRDNSKNTLYLQMNSLRAEDTAVYYCTREDYGTSPFVYWGQGTLVTVSS
VL: DIQLTQSPSSLSASVGDRVTITCRASESVDNYGISFMNWFQQKPGKAPKLLIYAASNQGSGVPSRFSGSGSGTDFTLTISSMQPEDFATYYCQQSKDVPWTFGQGTKLEIKR
As to B10, the concentration for half-maximal inhibition (IC50) was 1.04 nM in [5] and 1.85 nM in assay [6].

B11: A1.2 (antibody, V domains shown)
VH: B10 VH
VL: B10 VL with N31Q
Take B11: the IC50 came out at 1.01 nM in [5] and 1.55 nM in [6].

B12: Bb2 (antibody, V domains shown)
VH: QVQLVQSGAEVKKPGASVKMSCKASGYTFTDYYMDWVRQAPGQGLEWIGYIYPKNGGSSYAQKFQGRATLTVDKSTSTAYMELSSLRSEDTAVYYCARKVVATDYWGQGTLLTVSS
VL: DIQMTQSPSSLSASVGDRVTMTCKSSQSLLYSSNQKNYLAWYQQKPGKAPKLLIFWASIRESGVPSRFSGSGSGTDFTLTISSVQPEDFATYYCQQSDSYPWTFGQGTKLEIKR
As to B12, the IC50 in assay [7] was 1.83 nM; in [8] it was 1.67 nM. In addition, the affinity in [9], expressed as Kd, was 5.04 nM.

B13: Ba2 (antibody, V domains shown)
VH: B12 VH with K74T
VL: B12 VL
For B13, the values for the IC50 in assay [7] and in assay [8] were 1.2 nM and 2.2 nM, respectively.

B14: D4 (antibody, V domains shown)
VH: EVQLVESGGGLVQPGGSLRLSCAHSGFSFSSYDMSWVRQAPGKGLEWVATISGGGRYTYYADSVKGRFTISRDNSKNTLYLQMNSLRAEDTAVYYCASNYYGFDYWGQGTLLTVSS
VL: DIQMTQSPSSLSASVGDRVTITCKASQDVGTAVAWYQQKPGKAPKLLIYWASTRHTGVPSRFSGSGSGTDFTLTISSVQPEDFATYYCQQYSSYPWTFGQGTKLEIKR
Consider B14, for which the 50% inhibitory concentration (IC50) came out at 1.95 nM in assay [7] and 2.72 nM in [8]. Besides, the Kd in assay [9] was found to be 5.52 nM.
